Holding throughout (assay): purified protein
Common to all, as to conditions: ATP; Mg2+

Substrate in data set [1]: CC(C)(CO)[C@@H](O)C(=O)NCCCC(=O)O
The class given is biochemical, Homo sapiens.

Substrate in data set [2]: CC(C)(CO)[C@@H](O)C(=O)NCCC(=O)NCCS
The format is biochemical, Homo sapiens.

Substrate in data set [3]: CC(C)(CO)[C@@H](O)C(=O)NCCCC(=O)O
The format is biochemical, Drosophila melanogaster.

Substrate in data set [4]: CC(C)(CO)[C@@H](O)C(=O)NCCC(=O)NCCS
The format is biochemical, Drosophila melanogaster.

This note sets out measurements from PMC8726015.

B1: human pantothenate kinase hPANK3 (Homo sapiens) (protein)
chain: PWFGMDIGGTLVKLSYFEPIDITAEEEQEEVESLKSIRKYLTSNVAYGSTGIRDVHLELKDLTLFGRRGNLHFIRFPTQDLPTFIQMGRDKNFSTLQTVLCATGGGAYKFEKDFRTIGNLHLHKLDELDCLVKGLLYIDSVSFNGQAECYYFANASEPERCQKMPFNLDDPYPLLVVNIGSGVSILAVHSKDNYKRVTGTSLGGGTFLGLCSLLTGCESFEEALEMASKGDSTQADKLVRDIYGGDYERFGLPGWAVASSFGNMIYKEKRESVSKEDLARATLVTITNNIGSVARMCAVNEKINRVVFVGNFLRVNTLSMKLLAYALDYWSKGQLKALFLEHEGYFGAVGALLGLPNFS
Regarding B1, in “purified protein [1]”, the K0.5 worked out at 36.2 ± 2.1 µM, the kcat was 0.67 ± 0.02 s⁻¹ and the kcat/Km is 19500 ± 1600 M⁻¹ s⁻¹. In the data set “purified protein [2]”, the K0.5 is 8.05 ± 1.87 µM, the kcat is 0.41 ± 0.13 s⁻¹ and the kcat/Km is 57600 ± 24600 M⁻¹ s⁻¹.

B2: fruit fly pantothenate kinase dPANK/FblD (Fumble D) (Drosophila melanogaster) (protein)
chain: MPWFGMDIGGTLTKLVYFEPKDITPDEQDREAGILRNIRRYLTKNSAYGKTGHRDTHLQMDNVEIRKRRGSLHFIRFQTTDMGNFLSLAKQKGMAELVTTVCATGGGAFKFEQDFRDQVNMKLAKFDELDTLIKGILFADLHNRTECYYYENARDILKSEKQQFNFSQPFPFILVNVGSGVSILAVYGPDNYKRISGTSLGGGTFLGLCCLLTGCTSFEEAIQLATKGDNRKVDKLVKDIYGGDYNRFGLPGDLVASSFGQMHLNDKRVSVSREDLANATLVTITNNIGSIARMCALNEKIDRVVFVGNFLRVNPISMKLLAYAMEFWSNGTMKGLFLEHEGYFGALGCLLQFNGELAAALNDGVEHSIHTESDSASEAAQTSSTADEPPEKAPTSKHSTR
As to B2, in “purified protein [3]”, the K0.5 is 82.2 ± 12.4 µM, the kcat is 2.72 ± 0.5 s⁻¹ and the kcat/Km came out at 35600 ± 8400 M⁻¹ s⁻¹. Moreover, the K0.5 in the data set “purified protein [4]” was found to be 28.9 ± 13.0 µM.
